The results in this text go back to US7041441 (US Dept. of Health and Human Services, dated 2006).

This assay concerns the target T1, gp23* (major capsid protein of bacteriophage T4, cleaved mature form, in the expanded surface lattice) (bacteriophage T4, UniProt P04535 66-521).
T1 construct: mature; also called surface lattice protein; cleaved/expanded polyheads
T1 sequence: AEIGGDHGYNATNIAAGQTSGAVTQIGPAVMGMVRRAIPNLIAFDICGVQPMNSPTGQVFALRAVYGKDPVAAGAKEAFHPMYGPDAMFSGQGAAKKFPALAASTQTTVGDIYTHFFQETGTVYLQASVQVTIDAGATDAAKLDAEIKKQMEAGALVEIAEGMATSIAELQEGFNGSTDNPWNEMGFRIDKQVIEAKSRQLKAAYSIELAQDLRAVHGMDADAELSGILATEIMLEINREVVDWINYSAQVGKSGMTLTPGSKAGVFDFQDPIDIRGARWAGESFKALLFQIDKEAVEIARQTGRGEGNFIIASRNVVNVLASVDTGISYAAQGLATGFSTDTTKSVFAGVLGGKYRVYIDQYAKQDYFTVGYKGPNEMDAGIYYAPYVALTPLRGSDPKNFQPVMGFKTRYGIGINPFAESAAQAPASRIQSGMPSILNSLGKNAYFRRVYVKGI
The experiment in a line: co-pelleting with cleaved/expanded polyheads, quantitation of SDS-PAGE bands.

B1: SOC (small outer capsid) protein of bacteriophage T4, wild type (other)
chain: MASTRGYVNIKTFEQKLDGNKKIEGKEISVAFPLYSDVHKISGAHYQTFPSEKAAYSTVYEENQRTEWIAANEDLWKVTG
notes: mature
In the case of B1, the “molar ratio of SOC:gp23*” value was 1.2 mol/mol.

B2: SOC-V3 fusion protein (SOC, Cys-Leu-Asn-Ser, 43-residue V3 loop domain of HIV-1 gp120) (other)
chain: MASTRGYVNIKTFEQKLDGNKKIEGKEISVAFPLYSDVHKISGAHYQTFPSEKAAYSTVYEENQRTEWIAANEDLWKVTGCLNSSVEINCTRPNNNTRKRIRIQRGPGRAFVTIGKIGNMRQAHCNI
notes: mature;domain: V3 loop; also called SOV-V3
In the case of B2, the “molar ratio of SOC-V3:gp23*” value stood at 1.8 mol/mol.
